Measurements from US20220403048A1, “BINDING MOLECULES TO ARGINASE II [ARG2]” (Cancer Research Technology Limited, priority 2019, published 2022).

Target: recombinant human trimeric ARG2 enzyme (construct not given) (human) (UniProt P78540)
Experiment: cell-based or functional assay

Sequence of recombinant human trimeric ARG2 enzyme (construct not given) (human) (P78540 23-354, form in doubt): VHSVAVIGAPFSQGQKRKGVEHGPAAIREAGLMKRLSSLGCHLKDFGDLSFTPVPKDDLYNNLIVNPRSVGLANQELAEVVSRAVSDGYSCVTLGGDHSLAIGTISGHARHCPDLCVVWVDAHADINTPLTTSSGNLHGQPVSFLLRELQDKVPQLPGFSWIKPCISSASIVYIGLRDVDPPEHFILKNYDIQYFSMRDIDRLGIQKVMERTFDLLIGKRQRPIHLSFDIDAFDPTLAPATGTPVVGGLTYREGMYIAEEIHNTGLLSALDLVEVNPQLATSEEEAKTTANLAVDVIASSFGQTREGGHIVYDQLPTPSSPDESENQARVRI

Question: What does the source list for NIP228 human IgG1 (antibody)?
Answer: EC50, In Presence of rhARG2 (T cell proliferation): > 2000 nM; Maximum % Proliferation, In Presence of rhARG2: 7%
